Laboratory results published in patent publication US20190263905A1 (DINONA, published 2019).

B1: anti-CD66c chimeric antibody 8F5 (antibody, human IgG1, V domains shown)
VH: EVQLQQSGPELVKPGASMKISCKASGYSFTDYTMNWVKQSHGKNLEWIGLINPFHGGTVSNQRFKVKATLTVDVSSNTAYMELLSLTSDDSAVYYCVRGDPVRHYYALAYWGQGTSVTVSS
VL: DIQMTQSPASLSASVGETVTITCGASENVYGTLNWYQRKQGKSPQLLIYGATNLADGMSSRFSGSGSGRQYSLKISSLHPDDVATYYCQNVLSAPYTFGGGTKLEII
notes: also called chimeric 8F5 antibody; chi 8F5
B2: recombinant humanized anti-CD66c antibody Protein ID 3058 (Vk8 + VH11) (antibody, human IgG1, V domains shown)
VH: QVQLVQSGAEVKKPGASVKISCKASGYSFTDYTMHWVKQAPGQNLEWIGLINPFGGSTSYAQKFKGRVTMTRDTSTNTAYMELSRLRSDDTAVYYCVRGDPVRHYYALAYWGQGTLVTVSS
VL: DIQMTQSPSTLSASVGDRVTITCRASENVYGTLNWYQRKPGKAPKLLIYGATNLADGMPSRFSGSGSGTEYTLTISSLQPDDFATYYCQNVLSAPYTFGGGTKLEIK
notes: also called hu 3058; #86
B3: recombinant humanized anti-CD66c antibody Protein ID 3007 (Vk7 + VH6) (antibody, human IgG1, V domains shown)
VH: QVQLVQSGAEVKKPGASMKISCKASGYSFTDYTMNWVKQAPGQNLEWIGLINPFHGGTVSNQRFKVKATLTVDVSTNTAYMELSRLRSDDTAVYYCVRGDPVRHYYALAYWGQGTLVTVSS
VL: DIQMTQSPSTLSASVGDRVTITCGASENVYGTLNWYQRKPGKAPKLLIYGATNLADGVPSRFSGSGSGTEYTLTISSLQPDDFATYYCQNVLSAPYTFGGGTKLEIK
notes: also called hu 3007; #43
B4: recombinant humanized anti-CD66c antibody Protein ID 3043 (Vk8 + VH6) (antibody, human IgG1, V domains shown)
VH: QVQLVQSGAEVKKPGASMKISCKASGYSFTDYTMNWVKQAPGQNLEWIGLINPFHGGTVSNQRFKVKATLTVDVSTNTAYMELSRLRSDDTAVYYCVRGDPVRHYYALAYWGQGTLVTVSS
VL: DIQMTQSPSTLSASVGDRVTITCRASENVYGTLNWYQRKPGKAPKLLIYGATNLADGMPSRFSGSGSGTEYTLTISSLQPDDFATYYCQNVLSAPYTFGGGTKLEIK
notes: also called hu 3043; #71
B5: recombinant humanized anti-CD66c antibody Protein ID 2938 (Vk5 + VH7) (antibody, human IgG1, V domains shown)
VH: QVQLVQSGAEVKKPGASMKISCKASGYSFTDYTMNWVRQAPGQGLEWIGLINPFHGGTVSNQRFKVKATLTVDVSTNTAYMELSRLRSDDTAVYYCVRGDPVRHYYALAYWGQGTLVTVSS
VL: DIQMTQSPSTLSASVGDRVTITCGASENVYGTLAWYQRKPGKAPKLLIYGATNLADGVPSRFSGSGSGREYTLTISSLQPDDFATYYCQNVLSAPYTFGGGTKLEIK
notes: also called hu 2938

Assays:
[1] = target: T1, Antigen CD66c (CEACAM6; Sino Biological, Inc.) (UniProt P40199 35-320); experiment: ELISA, coated CEACAM6 100 ng/well, antibody 13.72 ng/ml
T1 construct: Bought antigen coated on the ELISA plate; construct not described; also called CD66c antigen; CECACAM6
T1 sequence (looked up): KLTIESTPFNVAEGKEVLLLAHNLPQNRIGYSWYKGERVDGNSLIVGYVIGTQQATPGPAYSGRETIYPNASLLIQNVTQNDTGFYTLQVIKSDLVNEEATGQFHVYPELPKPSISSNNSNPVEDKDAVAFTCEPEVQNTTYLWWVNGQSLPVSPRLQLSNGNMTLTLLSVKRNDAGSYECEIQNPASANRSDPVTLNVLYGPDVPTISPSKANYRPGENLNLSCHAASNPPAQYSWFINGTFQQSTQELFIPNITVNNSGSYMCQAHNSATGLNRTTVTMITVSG
Procedure: (§1) Antigen CD66c (CEACAM6; Sino Biological, Inc.) and CEACAM1 antigen (Sino Biological, Inc.) were coated on a 96-well plate at 100 ng per well and then blocked. The primary antibody was diluted serially three fold from 10 ug/ml at initial concentration and was bound at 37° C. for 1 hour, and goat anti-Human Ig-HRP conjugate (Jackson ImmunoResearch) as a secondary antibody was diluted 1:10,000 and incubated at 37° C. for 30 minutes. The washing was carried out at three times between each step, and the TMB reaction was performed, stopped with 1N H₂SO₄ solution at the same amount of TMB solution (100 ul) and then OD value was measured at 450 nm.
(§2) As a result of the experiment, the binding affinities to CD66c antigen of the five kinds of recombinant humanized antibodies selected from among 96 kinds of recombinant humanized antibodies are shown in FIG. 4a, Table 12, FIG. 4b and Table 13. FIG. 4a and Table 12 show the binding capacity of the antibodies to CECACAM6 CD66c) antigen, and FIG. 4b and Table 13 are the results for the CEACAM1 (CD66a) antigen.

[2] = target: T2, CD66c (CEACAM6) on CD66c-positive A549 non-small-cell lung cancer cells (UniProt P40199 35-320, limits assumed); experiment: flow cytometry on CD66c-positive A549 cells, FITC anti-human IgG
T2 construct: whole, on cells; also called CD66c antigen; NCA-90
T2 sequence (looked up): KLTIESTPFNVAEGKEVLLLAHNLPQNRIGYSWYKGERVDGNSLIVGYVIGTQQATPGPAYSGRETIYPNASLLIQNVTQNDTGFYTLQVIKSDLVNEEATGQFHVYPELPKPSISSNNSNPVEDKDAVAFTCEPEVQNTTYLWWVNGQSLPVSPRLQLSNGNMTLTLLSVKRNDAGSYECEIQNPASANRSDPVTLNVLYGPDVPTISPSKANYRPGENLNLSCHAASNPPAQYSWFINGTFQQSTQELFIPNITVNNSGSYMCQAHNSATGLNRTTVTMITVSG
Procedure: (§3) Each expressed 96 recombinant humanized antibody was poured and reacted in a test tube containing the same amount ([…]) of CD66c-positive A549 non-small-cell lung cancer cell line at 4° C. for 30 minutes, washed with PBS, and treated with FITC-conjugated goat anti-Human IgG (DiNona Inc, Korea) was added and incubated at 4° C. for 15 minutes. After washing with PBS, the cells were analyzed with a flow cytometer (Stratedigm, S1000EXi) and the results are shown below.
(§4) Among the 96 recombinant humanized antibody candidates, eight were firstly selected based on the degree of expression, the presence of aggregation, and the degree of cell binding (Table 9 and Table 10, FIGS. 3A to 3E).

[3] = target: T3, CEACAM1 antigen (Sino Biological, Inc.) (UniProt P13688 35-428); experiment: ELISA, coated CEACAM1 100 ng/well, antibody 3333.33 ng/ml
T3 construct: Bought antigen coated on the ELISA plate; construct not described; also called CEACAM1 (CD66a) antigen; CD66a
T3 sequence (looked up): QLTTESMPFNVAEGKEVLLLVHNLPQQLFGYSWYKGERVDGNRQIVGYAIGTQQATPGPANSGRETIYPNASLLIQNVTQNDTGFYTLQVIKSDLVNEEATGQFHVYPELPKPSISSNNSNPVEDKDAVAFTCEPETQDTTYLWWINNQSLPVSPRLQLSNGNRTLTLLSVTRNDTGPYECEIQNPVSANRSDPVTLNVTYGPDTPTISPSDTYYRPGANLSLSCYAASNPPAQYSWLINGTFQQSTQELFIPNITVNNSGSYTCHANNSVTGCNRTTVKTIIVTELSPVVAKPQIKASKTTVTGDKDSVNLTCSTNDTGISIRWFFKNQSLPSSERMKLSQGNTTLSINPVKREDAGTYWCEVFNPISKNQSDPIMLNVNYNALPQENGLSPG
Procedure: as §1, §2

[4] = target: T1, Antigen CD66c (CEACAM6; Sino …); experiment: ELISA, coated CEACAM6 100 ng/well, antibody 1111.11 ng/ml
Procedure: as §1, §2

[5] = target: T1, Antigen CD66c (CEACAM6; Sino …); experiment: ELISA, coated CEACAM6 100 ng/well, antibody 1.52 ng/ml
Procedure: as §1, §2

[6] = target: T3, CEACAM1 antigen (Sino Biological, Inc.); experiment: ELISA, coated CEACAM1 100 ng/well, antibody 123.46 ng/ml
Procedure: as §1, §2

[7] = target: T3, CEACAM1 antigen (Sino Biological, Inc.); experiment: ELISA, coated CEACAM1 100 ng/well, antibody 0.17 ng/ml
Procedure: as §1, §2

[8] = target: T3, CEACAM1 antigen (Sino Biological, Inc.); experiment: ELISA, coated CEACAM1 100 ng/well, antibody 41.15 ng/ml
Procedure: as §1, §2

[9] = target: T1, Antigen CD66c (CEACAM6; Sino …); experiment: ELISA, coated CEACAM6 100 ng/well, antibody 41.15 ng/ml
Procedure: as §1, §2

[10] = target: T2, CD66c (CEACAM6) on CD66c-positive A549 …; experiment: flow cytometry on A549 cells, relative to chimeric antibody
Procedure: as §3, §4

[11] = target: T3, CEACAM1 antigen (Sino Biological, Inc.); experiment: ELISA, coated CEACAM1 100 ng/well, antibody 13.72 ng/ml
Procedure: as §1, §2

Binder | OD 450 nm [1] | % gated [2] | OD 450 nm [3] | OD 450 nm [4] | OD 450 nm [5] | OD 450 nm [6] | OD 450 nm [7] | OD 450 nm [8] | OD 450 nm [9] | % (% gated × mean) [10] | OD 450 nm [11]
B1 | 1.15 OD | 73% | 1.24 OD | 3.3 OD | 0.53 OD | 0.95 OD | 0.08 OD | 0.82 OD | 2.02 OD | 100% | 0.51 OD
B2 | 1.06 OD | 72% | 0.31 OD | 3.19 OD | 0.53 OD | 0.07 OD | 0.04 OD | 0.07 OD | 1.38 OD | 103% | 0.05 OD
B3 | 1.64 OD | 71% | 1.15 OD | 3.23 OD | 0.79 OD | 0.82 OD | 0.09 OD | 0.66 OD | 2.17 OD | 88.8% | 0.46 OD
B4 | 1.37 OD | 69% | 1.22 OD | 2.74 OD | 0.7 OD | 0.7 OD | 0.08 OD | 0.61 OD | 1.73 OD | 105% | 0.43 OD
B5 | 1.15 OD | 71% | 0.27 OD | 3.16 OD | 0.48 OD | 0.1 OD | 0.04 OD | 0.07 OD | 1.72 OD | 96% | 0.06 OD
